The experiment addresses SARS-CoV-2 spike protein, wild type, on live virus (SARS-CoV-2-mNG / USA-WA1/2020) (SARS-CoV-2) (UniProt P0DTC2). As to the kind of experiment: cell-based or functional assay.

In the case of “IgG antibody carrying the VH and VL regions of Sotrovimab (S309)”, the Neutralization EC50 amounted to 0.17 µg/mL.
